Tested on: hsSB (high-solubility Sleeping Beauty transposase, recombinant) (artificial)
Experiment: cell_activity
Details: HeLa, 3 weeks

Substance	activity (% Venus-positive cells) (hsSB added to culture medium, up to 3.31% in iPSCs (FIG. 9))	activity (% Venus-positive cells) (protein electroporation, 20 ug hsSB, maximum efficiency, also active in CHO and mESC)
Venus transposon minicircle (SB LE/RE ends)	< 12	
Venus transposon plasmid (SB LE/RE ends)		42
